Assay results from patent publication US20180371054A1 (published 2018).

T1: CD19 (human, UniProt P15391 20-291)
T1 chain: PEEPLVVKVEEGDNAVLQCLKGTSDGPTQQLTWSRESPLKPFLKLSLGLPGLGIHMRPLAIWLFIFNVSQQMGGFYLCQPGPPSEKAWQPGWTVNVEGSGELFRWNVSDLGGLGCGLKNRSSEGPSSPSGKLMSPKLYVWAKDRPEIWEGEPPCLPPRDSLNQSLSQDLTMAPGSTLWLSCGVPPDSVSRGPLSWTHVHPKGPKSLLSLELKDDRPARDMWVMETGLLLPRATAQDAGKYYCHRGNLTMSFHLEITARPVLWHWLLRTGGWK


Experiments:
CD19 [1] = target: T1, CD19; assay: binding kinetics
CD19 [2] = target: T1, CD19; assay: Biacore SPR
CD22 = CD22 (human, UniProt P20273 20-687); assay: Biacore SPR

Kd (CD22) [µM] | Binder | also measured
– | CD19ALAb (antibody) QVQLQQSGAELVRPGSSVKISCKASGYAFSSYWMNWVKQRPGQGLEWIGQIWPGDGDTNYNGKFKGKATLTADESSSTAYMQLSSLASEDSAVYFCARRETTTVGRYYYAMDYWGQGTTVTVSSDIQLTQSPASLAVSLGQRATISCKASQSVDYDGDSYLNWYQQIPGQPPKLLIYDASNLVSGIPPRFSGSGSGTDFTLNIHPVEKVDAATYHCQQSTEDPWTFGGGTKLEIK | Kd (CD19 [1]): 0.0011 µM
– | Murine CD19ALAb scFv (scFv) scFv: QVQLQQSGAELVRPGSSVKISCKASGYAFSSYWMNWVKQRPGQGLEWIGQIWPGDGDTNYNGKFKGKATLTADESSSTAYMQLSSLASEDSAVYFCARRETTTVGRYYYAMDYWGQGTTVTVSSDIQLTQSPASLAVSLGQRATISCKASQSVDYDGDSYLNWYQQIPGQPPKLLIYDASNLVSGIPPRFSGSGSGTDFTLNIHPVEKVDAATYHCQQSTEDPWTFGGGTKLEIK | Kd (CD19 [2]): 0.00185 µM
0.038 | Murine CD22ALAb scFv (scFv) scFv: QVQLQQPGAELVRPGASVKLSCKASGYTFTNYWINWVKQRPGQGLEWIGNIYPSDSFTNYNQKFKDKATLTVDKSSSTAYMQLSSPTSEDSAVYYCTRDTQERSWYFDVWGAGTTVTVSSDVVMTQTPLSLPVSLGDQASISCRSSQSLVHSNGNTYLHWYLQKPGQSPKLLIYKVSNRFSGVPDRFSGSGSGTDFTLKISRVEAEDLGLYFCSQSTHVPWTFGGGTKLEIK | –
0.032 | Humanised CD22ALAb scFv (scFv) scFv: EVQLVESGAEVKKPGSSVKVSCKASGYTFTNYWINWVRQAPGQGLEWIGNIYPSDSFTNYNQKFKDRATLTVDKSTSTAYLELRNLRSDDTAVYYCTRDTQERSWYFDVWGQGTLVTVSSDIVMTQSPATLSVSPGERATLSCRSSQSLVHSNGNTYLHWYQQKPGQAPRLLIYKVSNRFSGVPARFSGSGSGVEFTLTISSLQSEDFAVYYCSQSTHVPWTFGQGTRLEIK | –
